# Target: APOBEC3G (A3G) (UniProt Q9HC16)
# Assay: AFM imaging
# Conditions: protein:DNA 2:1, Force spectroscopy probing buffer: 50 mM HEPES, 100 mM NaCl, 5 mM MgCl2, 1 mM DTT (pH and temperature not given), imaging buffer not in the material
# Sequence of APOBEC3G (A3G) (Q9HC16 whole entry): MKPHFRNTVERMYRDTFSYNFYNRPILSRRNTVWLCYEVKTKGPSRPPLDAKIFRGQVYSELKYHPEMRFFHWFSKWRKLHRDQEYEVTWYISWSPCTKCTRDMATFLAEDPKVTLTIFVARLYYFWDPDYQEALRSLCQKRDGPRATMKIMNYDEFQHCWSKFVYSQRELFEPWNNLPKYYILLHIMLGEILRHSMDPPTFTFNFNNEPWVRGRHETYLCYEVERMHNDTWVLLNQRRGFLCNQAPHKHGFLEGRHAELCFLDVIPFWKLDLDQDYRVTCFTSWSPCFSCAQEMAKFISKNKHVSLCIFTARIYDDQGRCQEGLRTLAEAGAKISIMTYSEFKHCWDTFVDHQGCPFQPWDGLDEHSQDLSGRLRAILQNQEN
Substance,binding signal (% complex yield),binding signal (% complex yield) (p = 0.12 vs specific (not significant))
418 bp duplex with 69 nt deaminase specific overhang,79.7,–
418 bp duplex with 69 nt nonspecific overhang,–,72.8
